In the supplement of paper PMC10724198:
± gives the standard deviation of the averaged measurements.

System: Saccharomyces cerevisiae
Assay: protein stability index of tFT-peptide fusion (C-terminal peptide) (PSI (0-1 scale)); higher = more stable (slower turnover)
Conditions: genetic background: wild type; temperature: 30 C
Description: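 Multiplexed protein stability (MPS) profiling in S. cerevisiae. Random 12-aa peptides (tFT-X12 library) are fused to the C-terminus of a sfGFP-mCherry tandem fluorescent timer, after mCherry and a GGGS linker. Cells are FACS-sorted into 8 mCherry/sfGFP bins and deep-sequenced. The protein stability index (PSI) is the read-weighted bin average, scaled from 0 (unstable) to 1 (stable). Only peptides with >10 reads are reported; cells were grown at 30 °C in SC-His with glucose.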
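Further: PSI is a weighted mean of sequencing reads over stability bins, variants kept only with over 10 reads, mCherry proximal and sfGFP distal, peptide attached via GGGS linker.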

Sequence | protein stability index
AAASWRVRIGRG | 0.7425 ± 0.004
AAFERRDPDLKV | 0.766 ± 0.062
AAIPPPLHTWRY | 0.722 ± 0.054
AANRCSVLPLGF | 0.601 ± 0.041
AAPPPAPPPPPR | 0.694 ± 0.0082
AAPSPHPLNSLS | 0.687 ± 0.036
AAQHNSLRGGPP | 0.731 ± 0.036
AASPRDPQKDHA | 0.711 ± 0.057
AAVSRPLPLGPP | 0.693 ± 0.075
AAYGCSGGEVGW | 0.68 ± 0.025
ACDFCIPGVRLD | 0.745 ± 0.022
ACDGIRRPVRGG | 0.697 ± 0.059
ACEAERRTFRWV | 0.66 ± 0.012
ACGGVWASGRGG | 0.705 ± 0.017
ACGLVSTSWYGA | 0.713 ± 0.086
ACLCFIEFRCLL | 0.547 ± 0.017
ACLWRLSWVLGK | 0.641 ± 0.037
ACLYDSMSVSSK | 0.6386 ± 0.0012
ACSPGHCTTGTS | 0.649 ± 0.021
ACTWASSSLARG | 0.735 ± 0.027
ACVGGGGMKVLG | 0.713 ± 0.065
ADLEQTWRYRLD | 0.674 ± 0.031
ADSVVAGKGASV | 0.686 ± 0.031
ADTIKRTKRSYP | 0.643 ± 0.1
AECMLGLFSGVL | 0.73 ± 0.033

Sequence | protein stability index
AEFSLFRPHSAA | 0.649 ± 0.11
AEGPAGNRGLGG | 0.6564 ± 0.0058
AEHSIFQLFPKD | 0.7034 ± 0.002
AELPPETKRLTR | 0.626 ± 0.04
AERCCLHPPIPA | 0.541 ± 0.033
AFFLVLSAFRWI | 0.541 ± 0.091
AFFRPGISRPYG | 0.71 ± 0.0072
AFFSFLFSNSFL | 0.664 ± 0.0082
AFFYLRGQESLL | 0.688 ± 0.077
AFHFFLIPHSFF | 0.639 ± 0.025
AFICGWSVGFGW | 0.697 ± 0.0072
AFLLAVIRSSCV | 0.55 ± 0.031
AFNPLPPFPLGF | 0.706 ± 0.034
AGAIWGGDSGVG | 0.607 ± 0.047
AGAWGREVVGWG | 0.708 ± 0.033
AGEGGRKGGGSR | 0.676 ± 0.014
AGGAVGEAGSEG | 0.6939 ± 0.0027
AGGGNGGGGGEK | 0.663 ± 0.019
AGGKRGGDGRWQ | 0.668 ± 0.014
AGGLCLGGVGLG | 0.674 ± 0.079
AGGLHRSRPCVD | 0.709 ± 0.024
AGGSGGEAGSEG | 0.655 ± 0.043
AGGWVGAEGCGG | 0.763 ± 0.024
AGHGTHSNSPFA | 0.693 ± 0.074
AGLGWGARQGAL | 0.67 ± 0.019

Sequence | protein stability index
AGLVPSSLQSVS | 0.695 ± 0.019
AGPGMARERYFY | 0.634 ± 0.046
AGPPPERDPGAS | 0.684 ± 0.069
AGPWMESPTKSC | 0.702 ± 0.023
AGQGGWREAGGG | 0.676 ± 0.027
AGRAVAAAVRED | 0.728 ± 0.076
AGRGRHPRSTWR | 0.688 ± 0.053
AGRSAHMEVRHE | 0.712 ± 0.047
AGTCVSVGVHRY | 0.599 ± 0.051
AGVRFLVIPRPP | 0.7182 ± 0.004
AGVVCGGGWWWA | 0.772 ± 0.12
AGWPAGARARAP | 0.712 ± 0.016
AHFSRRCKGLFG | 0.741 ± 0.01
AHQGSENRNMSV | 0.688 ± 0.043
AIFAPPFPPTPV | 0.69 ± 0.071
AILFGSSSWVVV | 0.659 ± 0.032
AIRPPLPPPTPL | 0.674 ± 0.046
AIRSSRMPLGSA | 0.668 ± 0.07
AISAGRTFVEVV | 0.657 ± 0.067
AKKKHHKYRRNG | 0.6542 ± 0.0048
AKLDMARGGGVV | 0.645 ± 0.018
AKYNISTMTGHT | 0.695 ± 0.024
ALCVPRTGPFFI | 0.737 ± 0.02
ALHYEVVGRGYL | 0.679 ± 0.036
ALLGIAGGQAAQ | 0.714 ± 0.028

Sequence | protein stability index
ALLPFLTPLLSR | 0.561 ± 0.054
ALLPLPPSPSLL | 0.719 ± 0.0097
ALLPPPRPLPHP | 0.719 ± 0.014
ALLTWIFTCIHI | 0.571 ± 0.039
ALPAGLRDLPRP | 0.586 ± 0.025
ALPCLSPVLPFL | 0.729 ± 0.014
ALPPPPPPSPLL | 0.642 ± 0.035
ALPPSPLLPTLP | 0.702 ± 0.062
ALSELSIDISHI | 0.632 ± 0.067
ALSFFGSCCLPF | 0.748 ± 0.014
ALSGSFVSWLGG | 0.689 ± 0.061
ALSLPFERVRDT | 0.692 ± 0.022
ALTALQTFRITL | 0.638 ± 0.014
ALWGHSWHSSLR | 0.713 ± 0.015
AMAMSSGQCFSS | 0.67674 ± 0.00043
AMSSVRCRLWPM | 0.761 ± 0.034
ANECYAEDREIR | 0.69 ± 0.027
ANQKRTKQQHRR | 0.722 ± 0.01
ANRLNASYQVSD | 0.6982 ± 0.0038
APCRSLLADLAL | 0.736 ± 0.036
APDLAVWNLGPH | 0.68899 ± 0.00041
APFLDRSSPRSF | 0.707 ± 0.15
APKCRRRNSSGL | 0.68 ± 0.057
APKPPPPPPPLP | 0.709 ± 0.02
APLPPLRPPPSA | 0.687 ± 0.043

Sequence | protein stability index
APNAGPPTRSHR | 0.737 ± 0.086
APNGTPPLSLAS | 0.646 ± 0.017
APPARSPPPPRP | 0.7216 ± 0.0026
APPFRYLNSVSC | 0.66 ± 0.034
APPPALHPPPPH | 0.688 ± 0.054
APPPLPPLPPSP | 0.727 ± 0.2
APPPPGPLPPPS | 0.698 ± 0.025
APPPPPPLLLSF | 0.626 ± 0.038
APPPPPPPPRPL | 0.642 ± 0.041
APPPPQSRASSP | 0.7379 ± 0.0052
APPPPSLPVPST | 0.739 ± 0.015
APPPSVCPRFPI | 0.796 ± 0.012
APRFLGLLCPLL | 0.655 ± 0.0089
APRIILTCRSLT | 0.5 ± 0.1
APRLRRHPPHEP | 0.696 ± 0.0079
APSPPPRISAWL | 0.749 ± 0.045
APSPSPPPPLPN | 0.685 ± 0.058
APSQGPSRPGVV | 0.708 ± 0.038
APTPACTRPSVA | 0.693 ± 0.033
APTPPPVLLTPP | 0.6694 ± 0.0063
APTRPPRPNLFH | 0.625 ± 0.018
APVGTPARPSLS | 0.725 ± 0.016
APVLSVSFFSFL | 0.718 ± 0.013
AQPGRLHLSCES | 0.688 ± 0.052
ARAAQPVHFLNL | 0.715 ± 0.059

Sequence | protein stability index
ARAPPLPPPPAL | 0.698 ± 0.0076
ARGARTCDLIRW | 0.717 ± 0.035
ARLHIPSLLPAS | 0.6798 ± 0.0057
ARPLPPSLPPPP | 0.7356 ± 0.0046
ARPVSRWCEASY | 0.645 ± 0.025
ARQSVYNDLVYV | 0.582 ± 0.0065
ARRPHSPLCTTR | 0.7101 ± 0.00075
ARRTSAGVWCTA | 0.705 ± 0.04
ARSLPSPTLPFL | 0.697 ± 0.058
ARSQTGRTYFSP | 0.694 ± 0.062
ARTRRPTPGRPI | 0.719 ± 0.066
ARVAFARLPNVC | 0.66 ± 0.016
ARVIISGYWILY | 0.519 ± 0.048
ARVRAQIRDGRT | 0.6403 ± 0.0021
ASEKFGIMSTML | 0.662 ± 0.045
ASGSLGQIFSGL | 0.699 ± 0.026
ASHPESHIAWPA | 0.691 ± 0.03
ASLLSCRLPCLC | 0.518 ± 0.026
ASPFGFLFCCGG | 0.654 ± 0.025
ASPLFPLPPPPP | 0.71 ± 0.004
ASPPPEVCLSHR | 0.682 ± 0.0092
ASQTTKAKNTGH | 0.6688 ± 0.006
ATATPPAPPPSP | 0.686 ± 0.011
ATLCVVSKLGLC | 0.589 ± 0.0069
ATSPTPALPPLL | 0.743 ± 0.14

Sequence | protein stability index
ATVDLDLLSTCL | 0.7 ± 0.02
ATVPLVTPLPHF | 0.697 ± 0.042
AVAPPISTLLPV | 0.743 ± 0.04
AVEVRATVWWWW | 0.53259 ± 0.00014
AVFHPPPILPPP | 0.70154 ± 0.00061
AVFWLRFSRISV | 0.618 ± 0.0094
AVFYGRWRGVWE | 0.859 ± 0.12
AVGARRRLEVGD | 0.722 ± 0.016
AVGCLGKSRATL | 0.662 ± 0.0088
AVGLGARHRVAW | 0.688 ± 0.016
AVGLGPFGGSRG | 0.695 ± 0.0095
AVGRSVVCINRA | 0.686 ± 0.041
AVGVCGGGWWWA | 0.792 ± 0.098
AVLERGLCCGEY | 0.738 ± 0.031
AVLGGAGGGWAG | 0.687 ± 0.12
AVLKDFDTKHLY | 0.613 ± 0.024
AVMGQRQAESPV | 0.693 ± 0.067
AVPGLPLWWQPS | 0.746 ± 0.028
AVQSEFGVGFSM | 0.736 ± 0.04
AVRELIRASGPG | 0.642 ± 0.043
AVRVLLISSSGT | 0.641 ± 0.031
AVSFGSTLANWA | 0.718 ± 0.062
AVSTYGAQAWNH | 0.704 ± 0.018
AVVFCSIPCLRV | 0.575 ± 0.052
AWDSVNDSDPPR | 0.717 ± 0.035

Sequence | protein stability index
AWEPGGVVAVLL | 0.621 ± 0.14
AWGLKRSCRIKL | 0.678 ± 0.051
AWNRFVNPRVWS | 0.677 ± 0.03
AWRGFVALSFSR | 0.695 ± 0.049
AWRGGSRKDVEG | 0.7129 ± 0.001
AWRGLAPRFVLT | 0.544 ± 0.01
AWSALWGAVSPY | 0.7073 ± 0.0027
AWSVRVGGSATA | 0.695 ± 0.033
AWVCSPSACGLV | 0.834 ± 0.089
AYAPPSALPYPF | 0.729 ± 0.0075
AYDIIPGKFKKI | 0.652 ± 0.05
AYGGEWGDRGWL | 0.688 ± 0.076
AYSPLFPPLLSL | 0.649 ± 0.045
AYVFLPINKENR | 0.6405 ± 0.0053
AYVHGSINPMQP | 0.691 ± 0.011
AYVQPASRSPPP | 0.735 ± 0.062
CAGLIDLVGDVS | 0.654 ± 0.018
CARSFGLFGTAT | 0.694 ± 0.075
CASACPPPPPAT | 0.726 ± 0.019
CASGPLQPLPRA | 0.753 ± 0.084
CAVGPQSSSCPR | 0.56 ± 0.03
